Laboratory results as given in PMC6222095 (2018).
Positions count from the first letter of the chain named.

B1: complement factor H, homozygous Tyr-402/Val-62 allotype (natural protein)
chain: EDCNELPPRRNTEILTGSWSDQTYPEGTQAIYKCRPGYRSLGNVIMVCRKGEWVALNPLRKCQKRPCGHPGDTPFGTFTLTGGNVFEYGVKAVYTCNEGYQLLGEINYRECDTDGWTNDIPICEVVKCLPVTAPENGKIVSSAMEPDREYHFGQAVRFVCNSGYKIEGDEEMHCSDDGFWSKEKPKCVEISCKSPDVINGSPISQKIIYKENERFQYKCNMGYEYSERGDAVCTESGWRPLPSCEEKSCDNPYIPNGDYSPLRIKHRTGDEITYQCRNGFYPATRGNTAKCTSTGWIPAPRCTLKPCDYPDIKHGGLYHENMRRPYFPVAVGKYYSYYCDEHFETPSGSYWDHIHCTQDGWSPAVPCLRKCYFPYLENGYNQNYGRKFVQGKSIDVACHPGYALPKAQTTVTCMENGWSPTPRCIRVKTCSKSSIDIENGFISESQYTYALKEKAKYQCKLGYVTADGETSGSITCGKDGWSAQPTCIKSCDIPVFMNARTKNDFTWFKLNDTLDYECHDGYESNTGSTTGSIVCGYNGWSDLPICYERECELPKIDVHLVPDRKKDQYKVGEVLKFSCKPGFTIVGPNSVQCYHFGLSPDLPICKEQVQSCGPPPELLNGNVKEKTKEEYGHSEVVEYYCNPRFLMKGPNKIQCVDGEWTTLPVCIVEESTCGDIPELEHGWAQLSSPPYYYGDSVEFNCSESFTMIGHRSITCIHGVWTQLPQCVAIDKLKKCKSSNLIILEEHLKNKKEFDHNSNIRYRCRGKEGWIHTVCINGRWDPEVNCSMAQIQLCPPPPQIPNSHNMTTTLNYRDGEKVSVLCQENYLIQEGEEITCKDGRWQSIPLCVEKIPCSQPPQIEHGTINSSRSSQESYAHGTKLSYTCEGGFRISEENETTCYMGKWSSPPQCEGLPCKSPPEISHGVVAHMSDSYQYGEEVTYKCFEGFGIDGPAIAKCLGEKWSHPPSCIKTDCLSLPSFENAIPMGEKKDVYKAGEQVTYTCATYYKMDGASNVTCINSRWTGRPTCRDTSCVNPPTVQNAYIVSRQMSKYPSGERVRYQCRSPYEMFGDEEVMCLNGNWTEPPQCKDSTGKCGPPPPIDNGDITSFPLSVYAPASSVEYQCQNLYQLEGNKRITCRNGQWSEPPKCLHPCVISREIMENYNIALRWTAKQKLYSRTGESVEFVCKRGYRLSSRSHTLRTTCWDGKLEYPTCAKR
modifications: eight biantennary disialylated N-glycans; sites as printed: Asn-511, Asn-700, Asn-784, Asn-804, Asn-864, Asn-892, Asn-1011, Asn-1077
B2: complement factor H, double homozygous His-402/Val-62 allotype (natural protein)
chain: B1 chain with Y384H
modifications: eight biantennary disialylated N-glycans; sites as printed: Asn-511, Asn-700, Asn-784, Asn-804, Asn-864, Asn-892, Asn-1011, Asn-1077

Columns and labels:
[1] = molecular target: B2; assay: SPR
SPR = molecular target: the molecule itself; assay: SPR

Kd [1] | Binder | Kd (SPR)
> 40 µM | B1 | –
– | B2 | > 40 µM
